Results published in US20100169992A1 (U3 PHARMA, published 2010).
Each block holds one binder with its values, some of them ahead of it.

Molecular target: T1, FGFR4 expressed on cells (L6-FGFR4 myoblasts; ZR-75-1 breast cancer cells) (UniProt P22455 22-802, limits assumed)
T1 construct: whole, on cells; also called L6-FGFR4 cells; FGFR4-transfected L6 myoblasts
Experiment: FACS Scatchard on L6-FGFR4 cells, anti-rat-PE detection
Experimental: L6-FGFR4 cells were harvested by incubation with 10 mM EDTA in PBS and resuspended at 6 million cells per ml in FACS buffer (PBS pH 7.4, 3% FCS, 0.1% NaN₃). In a round-bottom microtiter plate, 100 μl of cell suspension were added to 100 μl of antibody solution containing antibodies 10F10 or 9A5 at concentrations between 31.25 and 0.01 μg/ml in FACS buffer. Antibody binding was allowed to proceed for 2 hours ice. Then, cells were washed twice with 250 μl FACS buffer per well, and resuspended in 200 μl of secondary antibody (anti-rat-PE; Jackson), diluted 1:50 in FACS buffer. After 45 minutes of incubation, cells were again washed twice in FACS buffer, then resuspended in […] of PBS for FACS analysis. Analysis was carried out on a Beckman-Coulter FACS. To determine the apparent affinity constant KDapp, mean fluorescence values were plotted against the ratio of mean fluorescence and the corresponding antibody contration ([M]). The calculated KDapp resulted from the inverse slope of the straight line (FIG. 2).

T1 sequence (P22455 22-802 limits assumed): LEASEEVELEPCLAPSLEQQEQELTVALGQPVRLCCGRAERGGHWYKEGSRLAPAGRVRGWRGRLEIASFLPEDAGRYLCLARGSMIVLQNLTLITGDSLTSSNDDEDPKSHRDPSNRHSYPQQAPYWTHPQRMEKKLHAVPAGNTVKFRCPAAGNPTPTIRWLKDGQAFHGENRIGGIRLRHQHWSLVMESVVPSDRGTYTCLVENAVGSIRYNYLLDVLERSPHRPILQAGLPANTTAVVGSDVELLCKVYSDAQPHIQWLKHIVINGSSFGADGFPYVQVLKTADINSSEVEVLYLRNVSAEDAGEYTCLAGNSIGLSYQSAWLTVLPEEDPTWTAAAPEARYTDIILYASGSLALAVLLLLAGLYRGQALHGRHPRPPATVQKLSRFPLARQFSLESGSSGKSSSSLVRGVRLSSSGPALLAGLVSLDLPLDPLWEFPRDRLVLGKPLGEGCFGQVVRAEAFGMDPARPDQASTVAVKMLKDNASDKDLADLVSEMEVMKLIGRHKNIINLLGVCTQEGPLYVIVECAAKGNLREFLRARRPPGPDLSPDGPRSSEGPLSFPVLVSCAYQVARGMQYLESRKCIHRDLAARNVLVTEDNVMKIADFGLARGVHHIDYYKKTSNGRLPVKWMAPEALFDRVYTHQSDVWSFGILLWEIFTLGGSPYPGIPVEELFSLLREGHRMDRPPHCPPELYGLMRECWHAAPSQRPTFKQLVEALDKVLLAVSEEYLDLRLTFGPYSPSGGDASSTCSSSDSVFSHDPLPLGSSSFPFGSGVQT

- binding result: binds
B1: anti-FGFR4 antibody 10F10 (antibody, V domains shown)
VH: EVQLKESGPGLVQPSQTLSLTCTVSGFSLTDYSVHWVRQPPGKGLEWMGVVWSSGSTAYNSALKSRLRITRDTSKSQAFLKMNSLQTEDTAIYYCTRPRYSSWFVYWGQGTLVTVSS
VL: DTVLTQSPALAVSLGQRVTISCRASKSVSTFIHWYQQKSGQQPKLLIYSASNTESGPSRFSGSGSGTDFTLTIDPVEADDIANYYCQQSNELPWTFGGGTKLELKR
notes: Rat monoclonal antibody from a hybridoma (rats immunised with FGFR4-ECD-GST)

- binding result: binds
B2: anti-FGFR4 antibody 9A5 (antibody, V domains shown)
VH: QVQLRESGPGLVQPSQTLSLTCTVSGFSLTFYHVSWVRQPPGKGLEWMGVIWTGGSTTYNSLLKSRLTISRDTSKSQVFLKMNSLQTEDTATYYCARGGGDRGYFAFWGPGTMVTVSS
VL: NTVMTQSPTSMFTSVGDRVTMSCKASQNVGINVGWYQQKTGQSPKRLIYWASNRDTGVPDRFTGSGSGTDFTLTISNMQAEDPAIYYCLQHNSYPWTFGGGTKLELKR
notes: Rat monoclonal antibody from a hybridoma
